Results published in the supplement of paper PMC10567573.

B1: TSPAN10 (parent)
chain: EGCGPPLRRWLRANLAASGGYAIA

Variants of: B1
Test: protein stability index of a GFP-peptide fusion (GPS, HEK-293T) (PSI 1-6); higher = more stable
Settings: c terminus: a fixed tail appended
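Further: lentivirally expressed fusions sorted by FACS into six bins by GFP to DsRed ratio, PSI derived from sequencing read proportions per bin multiplied by bin number.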

Variant | protein stability index
EGCGPPLRRWIRANLAASGGYAIA [L11I] | 1.91
EGCGPPLRRWCRANLAASGGYAIA [L11C] | 1.68
EGCGPPLRRWSRANLAASGGYAIA [L11S] | 2.61
EGCGPPLRRWMRANLAASGGYAIA [L11M] | 2.51
EGCGPPLRRWERANLAASGGYAIA [L11E] | 2.57
EGCGPPLRRWDRANLAASGGYAIA [L11D] | 2.12
EGCGPPLRRWLRANLAASGTYAIA [G20T] | 1.63
EGCGPPLRRWLRANLAASGRYAIA [G20R] | 1.48
EGCGPPLRRWLRANLAASGLYAIA [G20L] | 1.96
EGCGPPLRRWLRANLAASGQYAIA [G20Q] | 2.53
EGCGPPLRRWLRANLAASGYYAIA [G20Y] | 1.66
EGCGPPLRRWLRANLAASGSYAIA [G20S] | 2.17
EGCGPPLRRWLRANLAASGFYAIA [G20F] | 1.96
EGCGPPLRRWLRANLAASGPYAIA [G20P] | 2
EGCGPPLRRWLRANLAASGVYAIA [G20V] | 2.21
EGCGPPLRRWLRANLAASGMYAIA [G20M] | 1.84
EGCGPPLRRWLRANLAASGHYAIA [G20H] | 2.03
EGCGPPLRRWLRANLAASGKYAIA [G20K] | 2.77
EGCGPPLRRWLRANLAASGGYAIQ [A24Q] | 2.6
EGCGPPLRRWLRANLAASGGYAIC [A24C] | 2.02
EGCGPPLRRWLRANLAASGGYAIR [A24R] | 2.12
EGCGPPLRRWLRANLAASGGYAIL [A24L] | 2.81
EGCGPPLRRWLRANLAASGGYAIV [A24V] | 1.67
EGCGPPLRRWLRANLAASGGYAIY [A24Y] | 1.16

Variant | protein stability index
EGCGPPLRRWLRANLRASGGYAIA [A16R] | 1.68
EGCGPPLRRWLRANLHASGGYAIA [A16H] | 2.13
EGCGPPLRRWLRANLPASGGYAIA [A16P] | 1.78
EGCGPPLRRWLRANLTASGGYAIA [A16T] | 1.63
EGCGPPLRRWLRANLDASGGYAIA [A16D] | 2.12
EGCGPPLRRWLRANLCASGGYAIA [A16C] | 1.78
EGCGPPLRRWLRANLKASGGYAIA [A16K] | 2.31
EGCGPPLRRWLRANLEASGGYAIA [A16E] | 2.58
EGCGPPLRRWLRANLIASGGYAIA [A16I] | 1.96
EGWGPPLRRWLRANLAASGGYAIA [C3W] | 1.72
EGPGPPLRRWLRANLAASGGYAIA [C3P] | 2.25
EGEGPPLRRWLRANLAASGGYAIA [C3E] | 2.82
EGSGPPLRRWLRANLAASGGYAIA [C3S] | 2.45
EGTGPPLRRWLRANLAASGGYAIA [C3T] | 1.7
EGQGPPLRRWLRANLAASGGYAIA [C3Q] | 3.09
EGFGPPLRRWLRANLAASGGYAIA [C3F] | 1.61
EGVGPPLRRWLRANLAASGGYAIA [C3V] | 1.76
EFCGPPLRRWLRANLAASGGYAIA [G2F] | 2.24
EVCGPPLRRWLRANLAASGGYAIA [G2V] | 1.53
ERCGPPLRRWLRANLAASGGYAIA [G2R] | 2.04
ETCGPPLRRWLRANLAASGGYAIA [G2T] | 1.83
ECCGPPLRRWLRANLAASGGYAIA [G2C] | 1.68
EGCGPPLRRWLRANLAASGGYTIA [A22T] | 1.7
EGCGPPLRRWLRANLAASGGYCIA [A22C] | 1.38

Variant | protein stability index
EGCGPPLRRWLRANLAASGGYMIA [A22M] | 1.62
EGCGPPLRRWLRANLAASGGYWIA [A22W] | 2.18
EGCGPPLRRWLRANLAASGGYRIA [A22R] | 1.68
EGCGPPLRRWLRANLAASGGYYIA [A22Y] | 2.04
EGCGPPLRRWLRANLAASGGYQIA [A22Q] | 1.63
EGCGPPLRRWLRANLAASGGYPIA [A22P] | 1.93
EGCGPPLRRWLRANLAASGGYNIA [A22N] | 2.43
EGCGPPLRRWLRANLAAIGGYAIA [S18I] | 1.44
EGCGPPLRRWLRANLAAVGGYAIA [S18V] | 2.16
EGCGPPLRRWLRANLAANGGYAIA [S18N] | 2.01
EGCGPPLRRWLRANLAARGGYAIA [S18R] | 1.8
EGCGPPLRRWLRANLAAMGGYAIA [S18M] | 1.6
EGCGPPLRRWLRANLAAQGGYAIA [S18Q] | 2.04
EGCGPPLRRWLRANLAAYGGYAIA [S18Y] | 1.4
EGCGPPLRRWLRANLAAHGGYAIA [S18H] | 1.87
EGCGPPLRRWLRANLAAPGGYAIA [S18P] | 2.28
EGCGPPLRRWLRANVAASGGYAIA [L15V] | 2.07
EGCGPPLRRWLRANFAASGGYAIA [L15F] | 1.58
EGCGPPLRRWLRANGAASGGYAIA [L15G] | 2.59
EGCGPPLRRWLRANIAASGGYAIA [L15I] | 1.93
EGCGPPLRRWLRANMAASGGYAIA [L15M] | 2.16
EGCGPPLRRWLRANTAASGGYAIA [L15T] | 1.95
EGCGPPLRRWLRANKAASGGYAIA [L15K] | 2.53
EGCGPPLRRWLRANAAASGGYAIA [L15A] | 2.36

Variant | protein stability index
EGCGPPLRRWLRANCAASGGYAIA [L15C] | 1.49
EGCGPPLSRWLRANLAASGGYAIA [R8S] | 1.7
EGCGPPLQRWLRANLAASGGYAIA [R8Q] | 2.05
EGCGPPLERWLRANLAASGGYAIA [R8E] | 1.26
EGCGPPLLRWLRANLAASGGYAIA [R8L] | 1.37
EGCGPPLTRWLRANLAASGGYAIA [R8T] | 1.71
EGCGPPLMRWLRANLAASGGYAIA [R8M] | 2.16
EGCGPPLRQWLRANLAASGGYAIA [R9Q] | 1.81
EGCGPPLRYWLRANLAASGGYAIA [R9Y] | 2.29
EGCGPPLRDWLRANLAASGGYAIA [R9D] | 1.9
EGCGPPLRTWLRANLAASGGYAIA [R9T] | 1.7
EGCGPPLRLWLRANLAASGGYAIA [R9L] | 1.05
EGCGPPLRHWLRANLAASGGYAIA [R9H] | 1.58
EGCGPPLRPWLRANLAASGGYAIA [R9P] | 2.54
EGCGPPLRRWLRATLAASGGYAIA [N14T] | 1.86
EGCGPPLRRWLRAYLAASGGYAIA [N14Y] | 1.46
EGCGPPLRRWLRALLAASGGYAIA [N14L] | 1.02
EGCGPPLRRWLRARLAASGGYAIA [N14R] | 1.74
EGCGPPLRRWLRAGLAASGGYAIA [N14G] | 2.24
EGCGPPLRRWLRAHLAASGGYAIA [N14H] | 2.48
EGCGPPLRRWLRAQLAASGGYAIA [N14Q] | 1.39
EGCGPPLRRWLRAFLAASGGYAIA [N14F] | 1.92
